According to the supplement of paper PMC10567573:
± gives the standard deviation.

Assay: protein stability index of a GFP-peptide fusion (GPS, HEK-293T) (PSI 1-6); higher = more stable
[1] = treatment: DMSO, c terminus: a fixed tail appended
[2] = treatment: MLN4924 1 uM, 8 h, c terminus: a fixed tail appended
[3] = treatment: DMSO, c terminus: native
[4] = treatment: MLN4924 1 uM, 8 h, c terminus: native
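Also: 24-mer peptide tiles fused after GFP, lentivirally expressed, FACS-sorted into six equal bins by GFP/DsRed ratio, decoded by Illumina sequencing, PSI is the read-weighted mean bin number.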

Row | Sequence | protein stability index [1] | protein stability index [2] | protein stability index [3] | protein stability index [4]
1 | LKSISAEEILTLFCGAPPVTPIIV [PHTF1] | 3.16 ± 0.29 | 2.62 ± 0.53 |  | 
2 | SQVMGSGRGSLSSGGQTSWDSGCL [PLEKHN1] | 4.02 ± 0.14 | 3.98 ± 0.13 |  | 
3 | LRAELQGHHAEKLPAGAGAPKAGL [TNFSF13B] | 4.34 ± 0.32 | 4.45 ± 0.35 |  | 
4 | QMPKFDLGPLLSEPLVLYNQNLSN [MYOZ1] | 3.15 ± 0.1 | 3 ± 0.11 |  | 
5 | TVLLEEETLEASVGPRETEEKVRD [TOR1AIP2] | 5.59 ± 0.21 | 5.51 ± 0.24 |  | 
6 | QFRVIGPRHPIRALVGDEVELPCR [MOG] | 3.63 ± 0.31 | 3.64 ± 0.45 |  | 
7 | EANGLLPDDKLTLFCEVSVVQDSV [SPOPL] | 2.88 ± 0.49 | 3.03 ± 0.66 |  | 
8 | DYGRKAEELLWRKVYYEVIQLIKT [SMG5] | 2.71 ± 0.57 |  |  | 
9 | TESEIESETDFETEPETAPTTEPE [GNAS] | 5.66 ± 0.2 | 5.68 ± 0.27 |  | 
10 | KKTCRRINYCALNKPGCEHECVNM [MATN2] | 2.8 ± 0.38 | 2.95 ± 0.74 |  | 
11 | IKMMQAVRQAFQDQDDRRTWDGRP [GFOD1] | 3.21 ± 0.26 | 3.6 ± 0.19 |  | 
12 | LLAPEAGSHPQQTQKLEEIKENAQ [TOR1AIP2] | 5.44 ± 0.097 | 5.47 ± 0.25 |  | 
13 | KDIAHFWELGGGTSLLDLISIPIT [DYNC2LI1] | 2.54 ± 0.54 | 2.07 ± 0.24 |  | 
14 | FSIPPWRYDAEVVAIAQKFAALRA [MYORG] | 2.15 ± 0.3 | 2.22 ± 0.17 |  | 
15 | PLSPAFFGEDGIFRHDRLRFRDFV [PBXIP1] | 2.77 ± 0.16 | 2.91 ± 0.39 |  | 
16 | EPQWFYEETESSDDVEVLTLKKFK [C8orf76] | 4.66 ± 0.094 | 4.74 ± 0.15 |  | 
17 | KPFVSVFRHLRLQYIISDLASARI [GMCL1] | 3.07 ± 0.69 | 2.78 ± 0.85 |  | 
18 | DDSSSESGSGNGSSTLNPSTSSST [NOL4L] | 5.57 ± 0.31 | 5.49 ± 0.2 |  | 
19 | HHPEVPQRILRIMCRLEELGLAGR [HDAC6] | 2.09 ± 0.088 | 2.52 ± 0.7 |  | 
20 | PDNWFCYPCIPNHELVWAKMKGFG [ZMYND11] | 2.43 ± 0.37 | 2.12 ± 0.18 |  | 
21 | LDDIYYFGGQNAHNQIAIYAHQPR [FUT8] | 2.87 ± 0.41 | 2.92 ± 0.39 |  | 
22 | NQEYKMLLDIKTRLEQEIATYRSL [KRT13] | 2.58 ± 0.21 | 2.78 ± 0.19 |  | 
23 | TSKCGSLKNIRHRPGGGRVKIESV [MAP2] | 3.1 ± 0.21 | 3.3 ± 0.44 |  | 

Row | Sequence | protein stability index [1] | protein stability index [2] | protein stability index [3] | protein stability index [4]
24 | VNPNGQKQQLVDAFLKLAKQRSVC [FAN1] | 3.16 ± 0.27 | 2.92 ± 0.32 |  | 
25 | PVLGSSSGAGHGSGSGSGPGCGSV [SPAG8] | 4.8 ± 0.36 | 4.92 ± 0.49 |  | 
26 | NRSDHGIFHSRTSLQKLSTKLSAQ [FCHSD1] | 3.43 ± 0.25 | 3.67 ± 0.36 |  | 
27 | TGNPKSEEPEVPDQEGLQRITGLS [SPNS1] | 5.35 ± 0.26 | 5.41 ± 0.16 |  | 
28 | KGKYNISSEDYRQLELVILQSEPH [KCNK9] | 2.87 ± 0.28 | 2.93 ± 0.29 |  | 
29 | PRIVEMKKGSNGYGFYLRAGSEQK [PDZK1] | 3.53 ± 0.36 | 3.65 ± 0.54 |  | 
30 | AELLKKQEELNRKAEELDRREREL [SCAMP3] | 5.43 ± 0.26 | 5.44 ± 0.33 |  | 
31 | GVFGFFATIVFATDFYLIFNDVAK [CMTM3] | 2.75 ± 0.27 | 3.44 ± 0.43 |  | 
32 | RRRQRSEKKKAHYRQSSFPHCSDL [KCNA4] | 3.66 ± 0.16 | 3.98 ± 0.19 |  | 
33 | ELFQLQTYSLPPFLKAVLRQERVS [CDS1] | 1.99 ± 0.28 | 1.97 ± 0.37 |  | 
34 | RELDAISTNEEEKEENEAESDVKH [PRIM1] | 5.57 ± 0.17 | 5.62 ± 0.24 |  | 
35 | REIEELLAEAKYYLVQGLVEECQA [KCTD10] | 2.02 ± 0.34 | 2.16 ± 0.25 |  | 
36 | DNLLPGMQPSKPQQPSLNTMIQQQ [CLINT1] | 4.38 ± 0.29 | 4.45 ± 0.28 |  | 
37 | CFITLTTIGFGDYVALQTKGALQK [KCNK9] | 2.97 ± 0.63 | 2.67 ± 0.59 |  | 
38 | LNAELEEKMMQEAEKLKAQGEYSR [CCDC89] | 3.61 ± 0.28 | 3.71 ± 0.39 |  | 
39 | AEEWYKSKYADLSDAANRNHEALR [PRPH] | 4.27 ± 0.21 | 4.43 ± 0.35 |  | 
40 | RFPLDSAQDPDVGTNTVSFYTLSP [PCDHGC5] | 3.68 ± 0.15 | 3.88 ± 0.12 |  | 
41 | NHDSHMAKERAHSTASHSSSNSED [PDZK1] | 5.59 ± 0.17 | 5.61 ± 0.23 |  | 
42 | ASREENQAGPEATTSDPQDLDMKK [PALM] | 5.53 ± 0.46 | 5.43 ± 0.42 |  | 
43 | RAGPDSAGIALYSHEDVCVFKCSV [CARM1] | 2.35 ± 0.47 | 2.06 ± 0.41 |  | 
44 | AKGSLGTQIGFADLMGVLTKGVRE [FEM1A] | 2.49 ± 0.19 | 2.4 ± 0.3 |  | 
45 | GEVVKIPSRVHGSLEPFRPQQAPQ [PWWP2B] | 4.22 ± 0.21 | 4.16 ± 0.23 |  | 
46 | LQSLDDTELRLLGRTHSACDALRT [RSAD1] | 3.64 ± 0.2 | 3.85 ± 0.18 |  | 

Row | Sequence | protein stability index [1] | protein stability index [2] | protein stability index [3] | protein stability index [4]
47 | VKDDDRLTFHRHPVAQSTDGIRGK [SPSB4] | 4.89 ± 0.25 | 4.83 ± 0.23 |  | 
48 | AQSLPGPCAAAREGRLERRECGLA [IRX6] | 4.42 ± 0.2 | 4.53 ± 0.38 |  | 
49 | SPPKSPRTTVHDKSAHQTHSSWTP [DNAJC4] | 4.36 ± 0.15 | 4.41 ± 0.2 |  | 
50 | QKTSRSSSIPCSGSLDGRELSRQV [PPEF2] | 4.32 ± 0.23 | 4.48 ± 0.42 |  | 
51 | EKGETMEVIEKPENDPEWWKCKNA [NCK2] | 5.36 ± 0.32 | 5.486 ± 0.04 |  | 
52 | KGCLKLCRRCYDWIHRPGCRCKNS [SPRY1] | 3.04 ± 0.2 | 3.46 ± 0.2 |  | 
53 | PVCSALLDPVLQAPGTGPAQTELL [FANCE] | 4.2 ± 0.12 | 4.37 ± 0.12 |  | 
54 | KSIGSEPHEDHVFLVANFSQIETL [MATN2] | 2.92 ± 0.47 | 2.8 ± 0.25 |  | 
55 | EPEEPSEIPERRDSGVGASLTRSN [DLC1] | 5.51 ± 0.31 | 5.46 ± 0.33 |  | 
56 | WKVRYDTFIVSCKFSPDGKYVVSG [WDR88] | 2.31 ± 0.45 | 2.49 ± 0.14 |  | 
57 | WKDIIHNPQALSPQFTGILQLLQS [INTS3] | 2.11 ± 0.34 | 2.14 ± 0.23 |  | 
58 | HPDIFLPSEICDRLVNEYVELVNA [ZER1] | 2.56 ± 0.17 | 2.97 ± 0.35 |  | 
59 | SVAVPPPPPNRMYPPPPPALPSSA [WASL] | 4.5 ± 0.18 | 4.53 ± 0.3 |  | 
60 | DNANILLQIDNARLAADDFRTKFE [KRT17] | 3.27 ± 0.26 | 3.71 ± 0.28 |  | 
61 | ADWLGLKDEDLDLFPASPTREAHR [FBF1] | 4.77 ± 0.21 | 4.61 ± 0.12 |  | 
62 | KSSSSSSSSSSSSSSSSSSSSSGP [TMEM40] | 5.29 ± 0.15 | 5.3 ± 0.1 |  | 
63 | LELPEDEEEKKKMEESKAKFENLC [HSP90AB1] | 5.46 ± 0.42 | 5.3 ± 0.33 |  | 
64 | QLKIRKSNQIPTEVRSKAEEVVSF [FUNDC2] | 3.9 ± 0.45 | 3.88 ± 0.25 |  | 
65 | NLPNLAAAYSSILSSLGENPQRQG [GCH1] | 3.03 ± 0.2 | 3.2 ± 0.43 |  | 
66 | LTVYAWERGSMKTHFNTAQGFRTV [OAS1] | 2.72 ± 0.57 | 2.52 ± 0.21 |  | 
67 | QLTEKLARVNENLARKIASRNEFD [SSNA1] | 2.85 ± 0.18 | 3.24 ± 0.39 |  | 
68 | GATVRSFSINSRLASSLGNLNAAT [CDC14A] | 2.98 ± 0.1 | 2.92 ± 0.21 |  | 
69 | RQQRLNQLEKPPEKEEDHAPEFIK [FAM107A] | 5.33 ± 0.15 | 5.34 ± 0.35 |  | 

Row | Sequence | protein stability index [1] | protein stability index [2] | protein stability index [3] | protein stability index [4]
70 | TYLRLIVDHHGTAQLQALRQKEVD [INTS3] | 2.27 ± 0.2 | 2.35 ± 0.3 |  | 
71 | NLINQMLTINPAKRITAHEALKHP [CAMK2B] | 2.38 ± 0.32 | 2.23 ± 0.12 |  | 
72 | LADKELVHMISWAKKIPGMRGNA [ESR2] |  |  | 2.95 ± 0.85 | 2.56 ± 0.7
73 | SHEANKLQDMLDGFIKKFVLCPEC [EIF5] | 2.49 ± 0.74 | 2.65 ± 0.38 |  | 
74 | AEQRGDNALKDARAKLDELEGALH [KRT71] | 5.16 ± 0.2 | 5.37 ± 0.29 |  | 
75 | LIWSYPAGSLTFPVRPFFYTGHR [TRIM43] |  |  | 1.97 ± 0.37 | 2.15 ± 0.11
76 | LAIKKQQHIDNITQIEDATEKLKA [TRIM14] | 4.41 ± 0.27 | 4.38 ± 0.21 |  | 
77 | GKEQGQNLARQWNNCAFLESSAKS [RAP1B] | 4.1 ± 0.17 | 4.13 ± 0.14 |  | 
78 | PHTVLDRQLLCLIDYYESKIRKIH [CEP70] | 2.46 ± 0.34 | 2.28 ± 0.19 |  | 
79 | VPIPTVNQYLYFLFAPTLIYRDSY [SOAT1] | 3.32 ± 0.3 | 3.24 ± 0.24 |  | 
80 | SLLQPVTPLGTSRWRKISAALPY [NCF4] |  |  | 2.54 ± 0.27 | 2.24 ± 0.28
81 | ELFIITQLQSMPSRELASMNLDIV [RHOBTB3] | 2.31 ± 0.85 | 3.25 ± 0.55 |  | 
82 | SRHVTTRAALTYTSLEITILTSQP [M1AP] | 2.63 ± 0.51 | 2.6 ± 0.65 |  | 
83 | RRGQEPLSALLQFGVTYLEDYSAE [BCL2L13] | 3.11 ± 0.3 | 3.17 ± 0.43 |  | 
84 | QQELETLPTTKMAQTNPTPGSLGP [CRYBA1] | 5.15 ± 0.1 | 5.09 ± 0.13 |  | 
85 | SLPTTAPSNSSSLTLSGIKEDNSL [MYBL2] | 4.91 ± 0.17 | 5.2 ± 0.13 |  | 
86 | GSTLGGSSYSSCYSFGSGGGYGSS [KRT17] | 2.77 ± 0.23 | 2.98 ± 0.6 |  | 
87 | MAQPLCIRALLNLHTDVGSVRMRR [NEK8] | 2.48 ± 0.16 | 2.58 ± 0.099 |  | 
88 | MQCLISNVEAQLSEIRCDLERQNQ [KRT36] | 3.53 ± 0.11 | 3.32 ± 0.22 |  | 
89 | ENHEIYMKDSMSAAEVGTGQYATT [EPB41L3] | 4.79 ± 0.22 | 4.83 ± 0.3 |  | 
